The source of these data is the supplement of paper PMC10724198.

± gives the standard deviation of the averaged measurements.
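Also: PSI is a weighted mean of sequencing reads over stability bins, variants kept only with over 10 reads, mCherry proximal and sfGFP distal, peptide attached via GGGS linker.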

In the data set the test system is Saccharomyces cerevisiae. Description: protein stability index of tFT-peptide fusion (C-terminal peptide) (PSI (0-1 scale)); higher = more stable (slower turnover). To be noted: genetic background: wild type; temperature: 30 C.
Regarding KRGKNKKYKNRF, the protein stability index amounted to 0.638 ± 0.074.
The result for KRGRAIVVQLWV reads 0.578 ± 0.021; that for KRKDGVTAGVEG, 0.712 ± 0.017; that for KRKETIRKKNQT, 0.734 ± 0.05.
Under KRKHHKREKKKK stands 0.677 ± 0.042; under KRKKEKRKEERK, 0.779 ± 0.011; under KRKKIQNRGKKK, 0.718 ± 0.0086.
The result for KRRAERKKRSKG reads 0.6731 ± 0.006; that for KRRRYKEKPRKR, 0.665 ± 0.12; that for KRWKSKYELGST, 0.68 ± 0.063.
For KRYRKGGRPMRA, the protein stability index amounted to 0.66 ± 0.06.
The result for KSARSYSMEGEI reads 0.673 ± 0.016.
For the sequence KSFQLEHKYTRN, the protein stability index amounted to 0.737 ± 0.029.
The result for KSGGWLWGGGGG reads 0.663 ± 0.054; that for KSGHYVVSYSGV, 0.678 ± 0.0045.
KSPDSLDIRFHT yielded a protein stability index of 0.714 ± 0.13.
Sequence KSQATELKKVNG returned a protein stability index of 0.65 ± 0.037.
Regarding KSRGYSKQQIRG, the protein stability index was found to be 0.72 ± 0.015.
In the case of KSSNYSTEDVKI, the protein stability index was 0.697 ± 0.014.
Regarding KSSSVRQGWEGC, the protein stability index is 0.728 ± 0.081.
Under KTGATAIKKINK stands 0.695 ± 0.039; under KTKEYKYEKRKT, 0.596 ± 0.027.
In turn, KTKKIMPEQIKK came in with a protein stability index of 0.616 ± 0.017.
Under KTKKKKEQTKKK stands 0.808 ± 0.15.
In turn, KTKKKYENRKKK showed a protein stability index of 0.684 ± 0.0094.
KTKKNKQKSKKK yielded a protein stability index of 0.705 ± 0.034.
In turn, KTKKQEKNNKSK had a protein stability index of 0.685 ± 0.029.
Sequence KTLRRGYDWLQG yielded a protein stability index of 0.681 ± 0.038.
The result for KTLVRSFSIIEG reads 0.657 ± 0.026; that for KTRHRQKDVTTH, 0.713 ± 0.055; that for KTRKNNSKKNTK, 0.688 ± 0.019.
Sequence KTSYDQTLEMGL had a protein stability index of 0.62 ± 0.04.
Consider KTTRTGRHTAPN, for which the protein stability index was determined as 0.676 ± 0.028.
Take KTTVENEQRKEK: the protein stability index amounted to 0.698 ± 0.079.
As for KVDRDRTGIHWS, the protein stability index amounted to 0.671 ± 0.061.
As for KVHQHPFLHALS, the protein stability index turned out to be 0.695 ± 0.012.
The sequence KVIKEQNKKIDR yielded a protein stability index of 0.641 ± 0.026.
Turning to KVNWVKAAKKNA, the protein stability index was determined as 0.626 ± 0.019.
The sequence KVSTWKISRISG displayed a protein stability index of 0.55 ± 0.026.
Sequence KWEGKKINKKRE gave a protein stability index of 0.699 ± 0.077.
KWGVWLWVGGGG gave a protein stability index of 0.763 ± 0.056.
With KYEKILLTVAPE, the protein stability index was 0.672 ± 0.019.
KYLPSVVYIYRL had a protein stability index of 0.531 ± 0.023.
The sequence KYMENQLSYDAD registered a protein stability index of 0.646 ± 0.051.
The sequence LACGWCVAVYRG gave a protein stability index of 0.644 ± 0.049.
Consider LAFFAPCLLPPL, for which the protein stability index was determined as 0.557 ± 0.048.
Consider LAFFPPPLPPSS, for which the protein stability index stood at 0.698 ± 0.064.
In turn, LAGGGARWGVVR displayed a protein stability index of 0.659 ± 0.033.
For LAGISSNRHLRR, the protein stability index amounted to 0.753 ± 0.067.
Under LAGRSVVLLWMG stands 0.602 ± 0.021; under LALLGPCPPPIH, 0.741 ± 0.083; under LAPLTLLSPLPR, 0.677 ± 0.034.
As for LAPNPGVLFCGI, the protein stability index came out at 0.656 ± 0.044.
Regarding LAPPPRPPLAPP, the protein stability index amounted to 0.637 ± 0.03.
Sequence LAPRPPAPTPTL yielded a protein stability index of 0.603 ± 0.053.
The result for LAPSWVGYVSGH reads 0.7 ± 0.069; that for LARLTRHSKLGL, 0.712 ± 0.066.
For LASVYLLLRFSE, the protein stability index amounted to 0.5266 ± 0.0012.
Turning to LAVVGGVEKKYH, the protein stability index amounted to 0.676 ± 0.055.
Under LAVVSTRCRLEL stands 0.694 ± 0.062; under LCDACLSLVFLW, 0.629 ± 0.031.
As for LCGSSVSHLVLP, the protein stability index was 0.7125 ± 0.0054.
Sequence LCPSFAIALSSD displayed a protein stability index of 0.692 ± 0.013.
Sequence LCRCVFFGLWGV returned a protein stability index of 0.621 ± 0.031.
Sequence LCSLSLCSYSIF registered a protein stability index of 0.6 ± 0.0053.
Under LCTYVMFACFFF stands 0.641 ± 0.1.
With LCYTDMIRGCVF, the protein stability index was 0.65 ± 0.021.
The result for LDELTRRAEGCG reads 0.596 ± 0.008; that for LDGGYGRHGVGD, 0.6765 ± 0.00099.
Regarding LDIGVADAQRML, the protein stability index was 0.701 ± 0.14.
Under LEGTGDRFALCG stands 0.659 ± 0.023; under LEIRKKGNKIRE, 0.6 ± 0.041; under LEKYIKNYINKR, 0.615 ± 0.016.
The result for LERTTSNKYEER reads 0.7234 ± 0.0061; that for LESARDICAFAD, 0.6754 ± 0.005; that for LESSAKSRTMVL, 0.721 ± 0.014.
For the sequence LEVFSGNQSVLH, the protein stability index came to 0.645 ± 0.094.
In turn, LFAHSLRLSFAC showed a protein stability index of 0.7054 ± 0.0031.
Regarding LFALLSGIDRCL, the protein stability index is 0.634 ± 0.012.
On to LFAPPACLPSPA, for which the protein stability index stood at 0.64 ± 0.014.
